Patent publication US7273727B2, “Fusion proteins for prodrug activation” (Behrinwerke Aktiengesellschaft, priority 1992, dated 2007)

Experiments:
[1] = Analysis of the monosaccharide components in the carbohydrate content (HPAE-PAD after hydrolysis); format: physicochemical
Method: Neuraminic acid was determined by the method of Hermentin and Seidat (1991) GBF Monographs Volume 15, pp. 185-188 (after hydrolysis for 30 min in the presence of 0.1 N sulfuric acid at 80° C. and subsequent neutralization with 0.4 N sodium hydroxide solution) by high-pH anion exchange chomatography with pulsed amerometric detection (HPAE-PAD).
The monosaccaride components were determined (after hydrolysis for 4 h in the presence of 2 N trifluoracetic acid at 100° C. and evaporation to dryness in a SpeedVac) likewise by HPAE-PAD in a […] of the method described by Hardy et al. (1988) Analytical Biochemistry 170, pp. 54-62.

[2] = tested on: PEM (polymorphic epithelial mucin); assay: Specificity enzyme activity test, control plates coated with PEM; format: biochemical
Source text: (§1) The ability of the sFv-huβ-Gluc fusion protein to bind specifically to the CEA epitope defined by 431/26 and simultaneously to exert the enzymatic activity of human β-glucuronidase was shown in a specificity enzyme activity test (EP-A2-0 501 215). The test determines the liberation of 4-methylumbelliferone from 4-methylumbelliferyl β-glucuronide by the β-glucuronidase portion of the fusion protein after the fusion protein has been bound via the sFv portion to an antigen. The measured fluorescence values are reported as relative fluorescence units (FU).

[3] = Injection of prodrug after injection of fusion protein, side effects; format: in vivo; settings: prodrug injected 3 days after injection of the fusion protein; data not shown
Source text: This rapid internalization mechanism, which is mainly mediated by galactose and mannose, is closely involved in the advantageous phannacokinetics of the fusion protein according to the invention. These advantageous pharmacokinetics of the fusion protein to which galactose and, in particular, mannose are attached makes it possible for a hydrophilic prodrug which undergoes extracellular distribution to be administered i.v. at a relatively early time without eliciting non-specific prodrug activation. In this case an elimination step as described by Sharma et al. (Brit. J. Cancer, 61, 659, 1990) is unnecessary.

CEA = assay: Specificity enzyme activity test, plates coated with CEA; format: biochemical
Source text: as §1

[4] = fusion protein from BHK cells, after hydrolysis
[5] = fusion protein expressed by BHK cells
[6] = fusion protein from Saccharomyces cerevisiae

B1: sFv-huβ-Gluc: humanized sFv fragment against CEA (from MAb BW 431/26) linked via hinge to human β-glucuronidase; SEQ ID NO:2 (protein)
chain: MGWSCIILFLVATATGVHSQVQLQESGPGLVRPSQTLSLTCTVSGFTISSGYSWHWVRQPPGRGLEWIGYIQYSGITNYNPSLKSRVTMLVDTSKNQFSLRLSSVTAADTAVYYCAREDYDYHWYFDVWGQGTTVTVSSGGGGSGGGGSGGGGSDIQLTQSPSSLSASVGDRVTITCSTSSSVSYMHWYQQKPGKAPKLLIYSTSNLASGVPSRFSGSGSGTDFTFTISSLQPEDIATYYCHQWSSYPTFGQGTKLEIKELKTPLGDTTHTCPRCPAAAAVQGGMLYPQESPSRECKELDGLWSFRADFSDNRRRGFEEQWYRRPLWESGPTVDMPVPSSFNDISQDWRLRHFVGWVWYEREVILPERWTQDLRTRVVLRIGSAHSYAIVWVNGVDTLEHEGGYLPFEADISNLVQVGPLPSRLRITIAINNTLTPTTLPPGTIQYLTDTSKYPKGYFVQNTYFDFFNYAGLQRSVLLYTTPTTYIDDITVTTSVEQDSGLVNYQISVKGSNLFKLEVRLLDAENKVVANGTGTQGQLKVPGVSLWWPYLMHERPAYLYSLEVQLTAQTSLGPVSDFYTLPVGIRTVAVTKSQFLINGKPFYFHGVNKHEDADIRGKGFDWPLLVKDFNLLRWLGANAFRTSHYPYAEEVMQMCDRYGIVVIDECPGVGLALPQFFNNVSLHHHMQVMEEVVRRDKNHPAVVMWSVANEPASHLESAGYYLKMVIAHTKSLDPSRPVTFVSNSNYAADKGAPYVDVICLNSYYSWYHDYGHLELIQLQLATQFENWYKKYQKPIIQSEYGAETIAGFHQDPPLMFTEEYQKSLLEQYHLGLDQKRRKYVVGELIWNFADFMTEQSPTRVLGNKKGIFTRQRQPKSAAFLLRERYWKIANETRYPHSVAKSQCLENSPFT
[1]; [4]
  Fucose, molar ratio: 4 mol of carbohydrate/mol of sFv-huβ-Gluc
  Galactosamine, molar ratio: 2 mol of carbohydrate/mol of sFv-huβ-Gluc
  Galactose, molar ratio: 8 mol of carbohydrate/mol of sFv-huβ-Gluc
  Glucose, molar ratio: 1 mol of carbohydrate/mol of sFv-huβ-Gluc
  Mannose, molar ratio: 43 mol of carbohydrate/mol of sFv-huβ-Gluc
  N-Acetyl glucosamine, molar ratio: 30 mol of carbohydrate/mol of sFv-huβ-Gluc
  N-Acetyl-neuraminic acid, molar ratio: 4 mol of carbohydrate/mol of sFv-huβ-Gluc
[2]
  liberation of methylumbelliferone from 4-methylumbelliferyl β-glucuronide: does not liberate any methylumbelliferone
[3]
  side effects after injection of a suitable prodrug: without producing significant side effects
CEA; [5]
  antigen specificity: specific for CEA
  β-glucuronidase activity: full β-glucuronidase activity
CEA; plates coated with CEA
  liberation of methylumbelliferone from 4-methylumbelliferyl β-glucuronide: significant liberation of methyl-umbelliferone

B2: sFv-huβGluc: sFv 431/26 human β-glucuronidase fusion protein expressed in yeast (Example 9), highly mannosylated (protein)
chain: QVQLQESGPGLVRPSQTLSLTCTVSGFTISSGYSWHWVRQPPGRGLEWIGYIQYSGITNYNPSLKSRVTMLVDTSKNQFSLRLSSVTAADTAVYYCAREDYDYHWYFDVWGQGTTVTVSSGGGGSGGGGSGGGGSDIQLTQSPSSLSASVGDRVTITCSTSSSVSYMHWYQQKPGKAPKLLIYSTSNLASGVPSRFSGSGSGTDFTFTISSLQPEDIATYYCHQWSSYPTFGQGTKLEIKELKTPLGDTTHTCPRCPAAAAVQGGMLYPQESPSRECKELDGLWSFRADFSDNRRRGFEEQWYRRPLWESGPTVDMPVPSSFNDISQDWRLRHFVGWVWYEREVILPERWTQDLRTRVVLRIGSAHSYAIVWVNGVDTLEHEGGYLPFEADISNLVQVGPLPSRLRITIAINNTLTPTTLPPGTIQYLTDTSKYPKGYFVQNTYFDFFNYAGLQRSVLLYTTPTTYIDDITVTTSVEQDSGLVNYQISVKGSNLFKLEVRLLDAENKVVANGTGTQGQLKVPGVSLWWPYLMHERPAYLYSLEVQLTAQTSLGPVSDFYTLPVGIRTVAVTKSQFLINGKPFYFHGVNKHEDADIRGKGFDWPLLVKDFNLLRWLGANAFRTSHYPYAEEVMQMCDRYGIVVIDECPGVGLALPQFFNNVSLHHHMQVMEEVVRRDKNHPAVVMWSVANEPASHLESAGYYLKMVIAHTKSLDPSRPVTFVSNSNYAADKGAPYVDVICLNSYYSWYHDYGHLELIQLQLATQFENWYKKYQKPIIQSEYGAETIAGFHQDPPLMFTEEYQKSLLEQYHLGLDQKRRKYVVGELIWNFADFMTEQSPTRVLGNKKGIFTRQRQPKSAAFLLRERYWKIANETRYPHSVAKSQCLENSPFT
[1]; [6]
  Glucosamine: 6 mol/mol
  Glucose: 12 mol/mol
  Mannose: 150 mol/mol
